# Data published in US20260209339A1 (RADIANT BIOTHERAPEUTICS, published 2026).
# Where two headings read alike, the source gives them in different places.
# B1: Olokizumab Multabody (MB) (protein, part only; not given: Fab constants, linkers, ferritin carriers, not shown: another chain or arm of the molecule; a dimerising Fc or GST; large carriers; small tags and cut ends)
# VH: EVQLVESGGGLVQPGGSLRLSCAASGFNFNDYFMNWVRQAPGKGLEWVAQMRNKNYQYGTYYAESLEGRFTISRDDSKNSLYLQMNSLKTEDTAVYYCARESYYGFTSYWGQGTLVTVSS
# VL: DIQMTQSPSSLSASVGDRVTITCQASQDIGISLSWYQQKPGKAPKLLIYNANNLADGVPSRFSGSGSGTDFTLTISSLQPEDFATYYCLQHNSAPYTFGQGTKLEIK
# B2: anti-IL-11 Multabody (MB), source antibody TPP-29536 (protein, part only; not given: Fab constants, linkers, ferritin carriers, not shown: another chain or arm of the molecule; a dimerising Fc or GST; large carriers; small tags and cut ends)
# VH: EVQLLESGGGLVQPGGSLRLSCAASGFTFSSYGMHWVRQAPGKGLEWVAVISYDGSYKYYADSVKGRFTISRDNSKNTLYLQMNSLRAEDTAVYYCAAGVPDYWGQGTLVTVSS
# VL: QSVLTQPPSASGTPGQRVTISCSGSSSNIGSDYDVHWYQQLPGTAPKLLIYSNEERPSGVPDRFSGSKSGTSASLAISGLRSEDEADYYCSAWDSSLSGPVFGGGTKLTVL
# B3: Clazakizumab Multabody (MB) (protein, part only; not given: Fab constants, linkers, ferritin carriers, not shown: another chain or arm of the molecule; a dimerising Fc or GST; large carriers; small tags and cut ends)
# VH: EVQLVESGGGLVQPGGSLRLSCAASGFSLSNYYVTWVRQAPGKGLEWVGIIYGSDETAYATSAIGRFTISRDNSKNTLYLQMNSLRAEDTAVYYCARDDSSDWDAKFNLWGQGTLVTVSS
# VL: AIQMTQSPSSLSASVGDRVTITCQASQSINNELSWYQQKPGKAPKLLIYRASTLASGVPSRFSGSGSGTDFTLTISSLQPDDFATYYCQQGYSLRNIDNAFGGGTKVEIK
# B4: olokizumab IgG (antibody, V domains shown)
# VH: B1 VH
# VL: DIQMTQSPSSLSASVGDRVTITCQASQDIGISLSWYQQKPGKAPKLLIYNANNLADGVPSRFSGSGSGTDFTLTISSLQPEDFATYYCLQHNSAPYTFGQGTKLEIKR
# notes: Tested as parental IgG; also called CDP6038
# B5: siltuximab immunoglobulin (IgG) (antibody, V domains shown)
# VH: EVQLVESGGKLLKPGGSLKLSCAASGFTFSSFAMSWFRQSPEKRLEWVAEISSGGSYTYYPDTVTGRFTISRDNAKNTLYLEMSSLRSEDTAMYYCARGLWGYYALDYWGQGTSVTVSS
# VL: QIVLIQSPAIMSASPGEKVTMTCSASSSVSYMYWYQQKPGSSPRLLIYDTSNLASGVPVRFSGSGSGTSYSLTISRMEAEDAATYYCQQWSGYPYTFGGGTKLEIKR
# notes: Tested as parental IgG; also called siltuximab IgG; CNTO-328
# B6: TPP-29536 IgG (antibody, V domains shown)
# VH: B2 VH
# VL: B2 VL
# notes: Tested as parental IgG; also called anti-IL-11 IgG; parental IgG control
# B7: clazakizumab IgG (antibody, V domains shown)
# VH: B3 VH
# VL: AIQMTQSPSSLSASVGDRVTITCQASQSINNELSWYQQKPGKAPKLLIYRASTLASGVPSRFSGSGSGTDFTLTISSLQPDDFATYYCQQGYSLRNIDNAFGGGTKVEIKR
# notes: Tested as parental IgG
# Key:
# interleukin-6 (IL-6) [1] = target: interleukin-6 (IL-6) (UniProt P05231); experiment: ELISA on IL-6
# interleukin-6 (IL-6) [2] = target: interleukin-6 (IL-6) (UniProt P05231); experiment: cell-based or functional assay
# interleukin-6 (IL-6) [3] = target: interleukin-6 (IL-6) (UniProt P05231); experiment: BLI (Octet), IL-6 immobilized on the biosensor
# interleukin-6 (IL-6) [4] = target: interleukin-6 (IL-6) (UniProt P05231); experiment: cell-based or functional assay; remark: listed apart in the source
# interleukin-11 (IL-11) [5] = target: T1, interleukin-11 (IL-11) (UniProt P20809); experiment: ELISA on IL-11
# T1 sequence (looked up): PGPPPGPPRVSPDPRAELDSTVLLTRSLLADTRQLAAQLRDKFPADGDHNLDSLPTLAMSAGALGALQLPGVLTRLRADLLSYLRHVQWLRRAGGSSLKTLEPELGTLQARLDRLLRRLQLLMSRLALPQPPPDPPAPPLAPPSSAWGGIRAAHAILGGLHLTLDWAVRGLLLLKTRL
# interleukin-11 (IL-11) [6] = target: T1, interleukin-11 (IL-11); experiment: cell-based or functional assay
# interleukin-11 (IL-11) [7] = target: T2, interleukin-11 (IL-11) (UniProt P20809 22-199, limits assumed); experiment: ELISA
# T2 sequence (looked up): T1 sequence (looked up)
# [8] = target: bovine serum albumin (BSA) (bovine, UniProt P02769 25-607); experiment: ELISA
# interleukin-6 (IL-6) [9] = target: T3, interleukin-6 (IL-6) (UniProt P05231 30-212); experiment: ELISA on IL-6
# interleukin-6 (IL-6) [10] = target: T3, interleukin-6 (IL-6); experiment: cell-based or functional assay
# interleukin-6 (IL-6) [11] = target: T3, interleukin-6 (IL-6); experiment: cell-based or functional assay; remark: listed apart in the source
# interleukin-6 (IL-6) [12] = target: T3, interleukin-6 (IL-6); experiment: cell-based or functional assay; remark: listed apart in the source
# interleukin-6 (IL-6) [13] = target: T3, interleukin-6 (IL-6); experiment: BLI (Octet), IL-6 immobilized on the biosensor
# Excerpt: This method measures binding reactions at the surface of a fiber optic biosensor functionalized with an immobilized target moiety (e.g., IL-6).
# interleukin-11 (IL-11) [14] = target: T2, interleukin-11 (IL-11); experiment: ELISA on IL-11
# Description: Binding of anti-IL-11 Multabodies to IL-11 was assessed using an enzyme-linked immunosorbent assay (ELISA).
# interleukin-11 (IL-11) [15] = target: T2, interleukin-11 (IL-11); experiment: cell-based or functional assay
# Sequence of interleukin-6 (IL-6) (UniProt P05231) (P05231 30-212 limits assumed): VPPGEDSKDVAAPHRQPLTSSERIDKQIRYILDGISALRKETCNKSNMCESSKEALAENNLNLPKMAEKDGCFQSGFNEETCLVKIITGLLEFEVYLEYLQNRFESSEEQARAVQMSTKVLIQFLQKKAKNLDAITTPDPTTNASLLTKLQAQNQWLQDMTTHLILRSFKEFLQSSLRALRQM
# Sequence of bovine serum albumin (BSA) (P02769 25-607 limits assumed): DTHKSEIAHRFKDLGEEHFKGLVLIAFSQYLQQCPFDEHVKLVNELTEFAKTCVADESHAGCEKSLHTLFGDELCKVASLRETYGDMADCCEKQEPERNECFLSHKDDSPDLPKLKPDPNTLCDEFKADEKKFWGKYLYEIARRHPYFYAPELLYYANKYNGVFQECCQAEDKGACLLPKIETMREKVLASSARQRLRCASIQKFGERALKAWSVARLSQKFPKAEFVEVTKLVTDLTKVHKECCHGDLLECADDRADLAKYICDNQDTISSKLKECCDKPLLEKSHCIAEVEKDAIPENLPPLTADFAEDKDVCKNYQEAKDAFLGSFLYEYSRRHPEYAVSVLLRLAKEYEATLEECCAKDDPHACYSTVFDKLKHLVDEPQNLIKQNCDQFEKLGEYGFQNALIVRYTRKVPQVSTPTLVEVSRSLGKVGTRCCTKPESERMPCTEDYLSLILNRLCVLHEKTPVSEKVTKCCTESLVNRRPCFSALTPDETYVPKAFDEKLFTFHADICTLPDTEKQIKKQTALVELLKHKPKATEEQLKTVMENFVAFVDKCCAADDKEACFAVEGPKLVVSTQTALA
molecule,measurement,setting,value
Siltuximab Multabody (MB) (from UniProt P04945 1-108),EC50,interleukin-6 (IL-6) [1],0.0353 nM
same,"Fold change (IgG vs. Multabody), IL-6 Bioassay IC50",interleukin-6 (IL-6) [2],26 fold
same,"Fold change, INA-6 proliferation IC50 (IgG against MB)",interleukin-6 (IL-6) [2],9 fold
same,"IC50 (nM), proliferation of IL-6-dependent INA-6 cells (CellTiter-Glo)",interleukin-6 (IL-6) [2],0.67 nM
same,"IC50 (pM), IL-6 Bioassay (luciferase reporter cells)",interleukin-6 (IL-6) [2],44 pM
same,Kd,interleukin-6 (IL-6) [3],< 0.001 nM
B1,EC50,interleukin-6 (IL-6) [1],0.0454 nM
same,"Fold change (IgG vs. Multabody), IL-6 Bioassay IC50",interleukin-6 (IL-6) [4],60 fold
same,"Fold change (IgG/MB), IL-6-induced pSTAT3/STAT3 IC50, HCT-15 cells",interleukin-6 (IL-6) [4],7 fold
same,"Fold change (IgG/MB), IL-6-induced pSTAT3/STAT3 IC50, THP-1 cells",interleukin-6 (IL-6) [4],8 fold
same,"Fold change, INA-6 proliferation IC50 (IgG against MB)",interleukin-6 (IL-6) [4],16 fold
same,"IC50 (nM), IL-6-induced pSTAT3/STAT3 (Meso Scale Discovery), HCT-15 cells",interleukin-6 (IL-6) [4],0.03 nM
same,"IC50 (nM), IL-6-induced pSTAT3/STAT3 (Meso Scale Discovery), THP-1 cells",interleukin-6 (IL-6) [4],0.06 nM
same,"IC50 (nM), proliferation of IL-6-dependent INA-6 cells (CellTiter-Glo)",interleukin-6 (IL-6) [4],0.33 nM
same,"IC50 (pM), IL-6 Bioassay (luciferase reporter cells)",interleukin-6 (IL-6) [4],9.4 pM
same,Kd,interleukin-6 (IL-6) [3],< 0.001 nM
B2,EC50,interleukin-11 (IL-11) [5],0.659 nM
same,fold better binding than the parental IgG control,interleukin-11 (IL-11) [5],3 to 4 fold
same,"Fold change, IL-11-dependent pSTAT3/STAT3 IC50 (IgG against MB), Panc-1 cells",interleukin-11 (IL-11) [6],6 fold
same,"IC50 (nM), IL-11-dependent pSTAT3/STAT3 (Meso Scale Discovery), Panc-1 cells",interleukin-11 (IL-11) [6],0.13 nM
B3,EC50,interleukin-6 (IL-6) [1],0.0543 nM
same,"Fold change (IgG vs. Multabody), IL-6 Bioassay IC50",interleukin-6 (IL-6) [4],6 fold
same,"IC50 (pM), IL-6 Bioassay (luciferase reporter cells)",interleukin-6 (IL-6) [4],100 pM
same,Kd,interleukin-6 (IL-6) [3],< 0.001 nM
B4,binding result,interleukin-11 (IL-11) [7],no binding
same,binding result,[8],no binding
same,EC50,interleukin-6 (IL-6) [9],0.201 nM
same,"IC50 (pM), IL-6 Bioassay (luciferase reporter cells)",interleukin-6 (IL-6) [10],566 pM
same,"IC50 (nM), IL-6-induced pSTAT3/STAT3 (Meso Scale Discovery), HCT-15 cells",interleukin-6 (IL-6) [11],0.2 nM
same,"IC50 (nM), IL-6-induced pSTAT3/STAT3 (Meso Scale Discovery), THP-1 cells",interleukin-6 (IL-6) [11],0.48 nM
same,"IC50 (nM), proliferation of IL-6-dependent INA-6 cells (CellTiter-Glo)",interleukin-6 (IL-6) [12],5.29 nM
same,Kd,interleukin-6 (IL-6) [13],< 0.001 nM
B5,binding result,interleukin-11 (IL-11) [7],no binding
same,binding result,[8],no binding
same,EC50,interleukin-6 (IL-6) [9],0.154 nM
same,"IC50 (pM), IL-6 Bioassay (luciferase reporter cells)",interleukin-6 (IL-6) [10],1150 pM
same,"IC50 (nM), proliferation of IL-6-dependent INA-6 cells (CellTiter-Glo)",interleukin-6 (IL-6) [12],5.88 nM
same,Kd,interleukin-6 (IL-6) [13],< 0.001 nM
B6,EC50,interleukin-11 (IL-11) [14],2.71 nM
same,"IC50 (nM), IL-11-dependent pSTAT3/STAT3 (Meso Scale Discovery), Panc-1 cells",interleukin-11 (IL-11) [15],0.79 nM
B7,binding result,interleukin-11 (IL-11) [7],no binding
same,binding result,[8],no binding
same,EC50,interleukin-6 (IL-6) [9],0.176 nM
same,"IC50 (pM), IL-6 Bioassay (luciferase reporter cells)",interleukin-6 (IL-6) [10],604 pM
same,Kd,interleukin-6 (IL-6) [13],< 0.001 nM
